Laboratory results taken from patent publication US20210063414A1, “METHODS FOR PREVENTING AND/OR TREATING BONE LOSS CONDITIONS BY MODULATING IRISIN” (Dana-Farber Cancer Institute, Inc., priority 2018, published 2021).

Target: T1, MLO-Y4 cell surface proteins (Mus musculus, UniProt Q3U2P1)
T1 construct: endogenous in cells; host or cells: MLO-Y4
T1 sequence (Q3U2P1 1-1090): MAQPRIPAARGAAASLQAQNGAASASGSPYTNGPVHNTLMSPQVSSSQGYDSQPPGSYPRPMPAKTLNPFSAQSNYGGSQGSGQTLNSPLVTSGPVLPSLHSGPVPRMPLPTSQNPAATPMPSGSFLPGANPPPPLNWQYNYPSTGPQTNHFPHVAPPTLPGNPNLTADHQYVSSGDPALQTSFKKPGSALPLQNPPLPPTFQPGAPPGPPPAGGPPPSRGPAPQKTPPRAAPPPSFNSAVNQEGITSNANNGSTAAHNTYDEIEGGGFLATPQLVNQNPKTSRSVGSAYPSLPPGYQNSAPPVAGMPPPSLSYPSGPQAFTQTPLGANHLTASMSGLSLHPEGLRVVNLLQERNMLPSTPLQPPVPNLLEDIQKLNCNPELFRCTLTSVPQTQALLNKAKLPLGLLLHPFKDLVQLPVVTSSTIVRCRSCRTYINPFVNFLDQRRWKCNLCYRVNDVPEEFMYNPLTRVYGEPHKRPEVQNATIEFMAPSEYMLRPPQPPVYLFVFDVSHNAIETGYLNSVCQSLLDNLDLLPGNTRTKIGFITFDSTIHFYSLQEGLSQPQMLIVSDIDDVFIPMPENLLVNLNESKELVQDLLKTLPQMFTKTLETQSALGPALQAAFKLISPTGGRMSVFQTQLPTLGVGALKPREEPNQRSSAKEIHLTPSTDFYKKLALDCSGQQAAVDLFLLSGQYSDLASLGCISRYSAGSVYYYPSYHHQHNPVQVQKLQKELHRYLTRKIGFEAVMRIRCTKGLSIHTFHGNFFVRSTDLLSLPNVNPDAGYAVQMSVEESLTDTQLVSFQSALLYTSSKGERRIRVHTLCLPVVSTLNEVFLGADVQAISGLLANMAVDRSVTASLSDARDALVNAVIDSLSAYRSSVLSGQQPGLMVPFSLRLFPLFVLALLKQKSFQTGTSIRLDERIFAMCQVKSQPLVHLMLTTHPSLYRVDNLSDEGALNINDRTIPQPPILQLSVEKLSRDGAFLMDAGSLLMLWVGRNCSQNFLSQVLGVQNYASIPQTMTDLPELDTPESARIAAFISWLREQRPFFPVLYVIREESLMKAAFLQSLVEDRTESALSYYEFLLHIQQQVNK
Experiment: Crosslinking/co-immunoprecipitation/mass spectrometry (TMT quantitative proteomics) to identify irisin receptors
Type: binding
Settings: co-precipitated protein Sec24a (SC24A_MOUSE)
How it was run: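 Relative protein abundance came from 6-plex TMT MS3 quantitation on an Orbitrap Fusion Lumos, after in-gel trypsin digestion of Coomassie-stained SDS-PAGE lanes. Input was a Ni-NTA pulldown (250 mM imidazole elution) of lysates from murine MLO-Y4 cells. These cells were treated on ice with His-tagged irisin or adipsin (10 nM, 20 min) in serum-free medium, then crosslinked with 1.5 mM DTSSP for 30 min.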

TMT signal-to-noise ratio: 118.999
Substance: adipsin
